Publication doi:10.1101/705442

Molecular target: extracellular matrix proteins (ELISA of Figure S3: 'In each case')
Test: ELISA

“capillary morphogenesis gene 2 (ANTXR2/CMG2), biotinylated CMG2-AviTag construct (from UniProt P58335 34-489) (receptor)” gave a Kd of 500 to 1000 nM.
